Source: patent US20260167699A1 (Chugai, published 2026)

B1: GpH7-A5/GpH7-B3 variant K326_14T/GpL16-k0 (antibody, human IgG1, kappa)
heavy 1: not shown
heavy 2: not shown
light: DIVMTQSPLSLPVTPGEPASISCQASESLVHSNRNTYLHWYLQKPGQSPQLLIYKVSNRFSGVPDRFSGSGSGTDFTLKISRVEAEDVGVYYCSQNTHVPPTFGQGTKVEIERTVAAPSVFIFPPSDEQLKSGTASVVCLLNNFYPREAKVQWKVDNALQSGNSQESVTEQDSKDSTYSLSSTLTLSKADYEKHKVYACEVTHQGLSSPVTKSFNRGEC
notes: copies: 1 + 1 + 2
B2: GpH7-A5/GpH7-B3 variant K326_15Y/GpL16-k0 (antibody, human IgG1, kappa)
heavy 1: not shown
heavy 2: not shown
light: DIVMTQSPLSLPVTPGEPASISCQASESLVHSNRNTYLHWYLQKPGQSPQLLIYKVSNRFSGVPDRFSGSGSGTDFTLKISRVEAEDVGVYYCSQNTHVPPTFGQGTKVEIERTVAAPSVFIFPPSDEQLKSGTASVVCLLNNFYPREAKVQWKVDNALQSGNSQESVTEQDSKDSTYSLSSTLTLSKADYEKHKVYACEVTHQGLSSPVTKSFNRGEC
notes: copies: 1 + 1 + 2
B3: GpH7-A5/GpH7-B3 variant K326_16H/GpL16-k0 (antibody, human IgG1, kappa)
heavy 1: not shown
heavy 2: not shown
light: DIVMTQSPLSLPVTPGEPASISCQASESLVHSNRNTYLHWYLQKPGQSPQLLIYKVSNRFSGVPDRFSGSGSGTDFTLKISRVEAEDVGVYYCSQNTHVPPTFGQGTKVEIERTVAAPSVFIFPPSDEQLKSGTASVVCLLNNFYPREAKVQWKVDNALQSGNSQESVTEQDSKDSTYSLSSTLTLSKADYEKHKVYACEVTHQGLSSPVTKSFNRGEC
notes: copies: 1 + 1 + 2
B4: GpH7-A5/GpH7-B3 variant K326_18N/GpL16-k0 (antibody, human IgG1, kappa)
heavy 1: not shown
heavy 2: not shown
light: DIVMTQSPLSLPVTPGEPASISCQASESLVHSNRNTYLHWYLQKPGQSPQLLIYKVSNRFSGVPDRFSGSGSGTDFTLKISRVEAEDVGVYYCSQNTHVPPTFGQGTKVEIERTVAAPSVFIFPPSDEQLKSGTASVVCLLNNFYPREAKVQWKVDNALQSGNSQESVTEQDSKDSTYSLSSTLTLSKADYEKHKVYACEVTHQGLSSPVTKSFNRGEC
notes: copies: 1 + 1 + 2
B5: GpH7-A5/GpH7-B3 variant K326_19Q/GpL16-k0 (antibody, human IgG1, kappa)
heavy 1: not shown
heavy 2: not shown
light: DIVMTQSPLSLPVTPGEPASISCQASESLVHSNRNTYLHWYLQKPGQSPQLLIYKVSNRFSGVPDRFSGSGSGTDFTLKISRVEAEDVGVYYCSQNTHVPPTFGQGTKVEIERTVAAPSVFIFPPSDEQLKSGTASVVCLLNNFYPREAKVQWKVDNALQSGNSQESVTEQDSKDSTYSLSSTLTLSKADYEKHKVYACEVTHQGLSSPVTKSFNRGEC
notes: copies: 1 + 1 + 2
B6: GpH7-A5/GpH7-B3 variant K326_20W/GpL16-k0 (antibody, human IgG1, kappa)
heavy 1: not shown
heavy 2: not shown
light: DIVMTQSPLSLPVTPGEPASISCQASESLVHSNRNTYLHWYLQKPGQSPQLLIYKVSNRFSGVPDRFSGSGSGTDFTLKISRVEAEDVGVYYCSQNTHVPPTFGQGTKVEIERTVAAPSVFIFPPSDEQLKSGTASVVCLLNNFYPREAKVQWKVDNALQSGNSQESVTEQDSKDSTYSLSSTLTLSKADYEKHKVYACEVTHQGLSSPVTKSFNRGEC
notes: copies: 1 + 1 + 2
B7: GpH7-A5/GpH7-B3 variant K334_01G/GpL16-k0 (antibody, human IgG1, kappa)
heavy 1: not shown
heavy 2: not shown
light: DIVMTQSPLSLPVTPGEPASISCQASESLVHSNRNTYLHWYLQKPGQSPQLLIYKVSNRFSGVPDRFSGSGSGTDFTLKISRVEAEDVGVYYCSQNTHVPPTFGQGTKVEIERTVAAPSVFIFPPSDEQLKSGTASVVCLLNNFYPREAKVQWKVDNALQSGNSQESVTEQDSKDSTYSLSSTLTLSKADYEKHKVYACEVTHQGLSSPVTKSFNRGEC
notes: copies: 1 + 1 + 2
B8: GpH7-A5/GpH7-B3 variant K334_02A/GpL16-k0 (antibody, human IgG1, kappa)
heavy 1: not shown
heavy 2: not shown
light: DIVMTQSPLSLPVTPGEPASISCQASESLVHSNRNTYLHWYLQKPGQSPQLLIYKVSNRFSGVPDRFSGSGSGTDFTLKISRVEAEDVGVYYCSQNTHVPPTFGQGTKVEIERTVAAPSVFIFPPSDEQLKSGTASVVCLLNNFYPREAKVQWKVDNALQSGNSQESVTEQDSKDSTYSLSSTLTLSKADYEKHKVYACEVTHQGLSSPVTKSFNRGEC
notes: copies: 1 + 1 + 2
B9: GpH7-A5/GpH7-B3 variant K334_03V/GpL16-k0 (antibody, human IgG1, kappa)
heavy 1: not shown
heavy 2: not shown
light: DIVMTQSPLSLPVTPGEPASISCQASESLVHSNRNTYLHWYLQKPGQSPQLLIYKVSNRFSGVPDRFSGSGSGTDFTLKISRVEAEDVGVYYCSQNTHVPPTFGQGTKVEIERTVAAPSVFIFPPSDEQLKSGTASVVCLLNNFYPREAKVQWKVDNALQSGNSQESVTEQDSKDSTYSLSSTLTLSKADYEKHKVYACEVTHQGLSSPVTKSFNRGEC
notes: copies: 1 + 1 + 2
B10: GpH7-A5/GpH7-B3 variant K334_04F/GpL16-k0 (antibody, human IgG1, kappa)
heavy 1: not shown
heavy 2: not shown
light: DIVMTQSPLSLPVTPGEPASISCQASESLVHSNRNTYLHWYLQKPGQSPQLLIYKVSNRFSGVPDRFSGSGSGTDFTLKISRVEAEDVGVYYCSQNTHVPPTFGQGTKVEIERTVAAPSVFIFPPSDEQLKSGTASVVCLLNNFYPREAKVQWKVDNALQSGNSQESVTEQDSKDSTYSLSSTLTLSKADYEKHKVYACEVTHQGLSSPVTKSFNRGEC
notes: copies: 1 + 1 + 2
B11: GpH7-A5/GpH7-B3 variant K334_05P/GpL16-k0 (antibody, human IgG1, kappa)
heavy 1: not shown
heavy 2: not shown
light: DIVMTQSPLSLPVTPGEPASISCQASESLVHSNRNTYLHWYLQKPGQSPQLLIYKVSNRFSGVPDRFSGSGSGTDFTLKISRVEAEDVGVYYCSQNTHVPPTFGQGTKVEIERTVAAPSVFIFPPSDEQLKSGTASVVCLLNNFYPREAKVQWKVDNALQSGNSQESVTEQDSKDSTYSLSSTLTLSKADYEKHKVYACEVTHQGLSSPVTKSFNRGEC
notes: copies: 1 + 1 + 2
B12: GpH7-A5/GpH7-B3 variant K334_06M/GpL16-k0 (antibody, human IgG1, kappa)
heavy 1: not shown
heavy 2: not shown
light: DIVMTQSPLSLPVTPGEPASISCQASESLVHSNRNTYLHWYLQKPGQSPQLLIYKVSNRFSGVPDRFSGSGSGTDFTLKISRVEAEDVGVYYCSQNTHVPPTFGQGTKVEIERTVAAPSVFIFPPSDEQLKSGTASVVCLLNNFYPREAKVQWKVDNALQSGNSQESVTEQDSKDSTYSLSSTLTLSKADYEKHKVYACEVTHQGLSSPVTKSFNRGEC
notes: copies: 1 + 1 + 2

Target: T1, FcγRIIIa (human, UniProt P08637 17-208)
T1 construct: extracellular domain; also called 3a; FcγRIIIa extracellular domain
T1 sequence (P08637 other isoform, or with tags, fused parts or gaps): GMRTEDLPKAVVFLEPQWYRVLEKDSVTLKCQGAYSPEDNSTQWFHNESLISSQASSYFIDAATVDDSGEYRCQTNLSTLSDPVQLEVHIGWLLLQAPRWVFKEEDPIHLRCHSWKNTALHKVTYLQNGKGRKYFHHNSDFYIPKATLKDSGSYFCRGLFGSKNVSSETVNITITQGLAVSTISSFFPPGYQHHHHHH
Assay: SPR (Biacore);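 note: antibody variants captured on an SPR sensor chip, with FcγRIIIa passed over as analyte in HBS-EP+ buffer at 25 °C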

**Q.** Which “He/Con 3a” value does the source give for B1 here?
**A.** 140 % of GpH7-A5/GpH7-B3/GpL16-k0

**Q.** How did the “He/Con 3a” value turn out when B2 was run?
**A.** 124 % of GpH7-A5/GpH7-B3/GpL16-k0

**Q.** With B3 as the binder, how does the “He/Con 3a” value read?
**A.** 106 % of GpH7-A5/GpH7-B3/GpL16-k0

**Q.** For B4, which “He/Con 3a” value is on record?
**A.** 134 % of GpH7-A5/GpH7-B3/GpL16-k0

**Q.** Which “He/Con 3a” value does the source give for B5 here?
**A.** 117 % of GpH7-A5/GpH7-B3/GpL16-k0

**Q.** For B6, which “He/Con 3a” value is on record?
**A.** 93.7 % of GpH7-A5/GpH7-B3/GpL16-k0

**Q.** How did the “He/Con 3a” value turn out when B7 was run?
**A.** 125 % of GpH7-A5/GpH7-B3/GpL16-k0

**Q.** How did the “He/Con 3a” value turn out when B8 was run?
**A.** 152 % of GpH7-A5/GpH7-B3/GpL16-k0

**Q.** Which “He/Con 3a” value does the source give for B9 here?
**A.** 154 % of GpH7-A5/GpH7-B3/GpL16-k0

**Q.** Which “He/Con 3a” value does the source give for B10 here?
**A.** 152 % of GpH7-A5/GpH7-B3/GpL16-k0

**Q.** Which “He/Con 3a” value does the source give for B11 here?
**A.** 138 % of GpH7-A5/GpH7-B3/GpL16-k0

**Q.** Which “He/Con 3a” value does the source give for B12 here?
**A.** 149 % of GpH7-A5/GpH7-B3/GpL16-k0
